± gives the uncertainty stated by the source.

This series in a line: amyloid nucleation score (Sup35N fusion, yeast selection) (log enrichment); library NNK3; higher = more nucleation; inactive = no reads after selection. The essentials: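 The nucleation score is a DiMSum log enrichment of output over input reads, centred on the mode score of non-aggregating sequences. Sequences under 100 input reads were excluded, and reads came from Illumina sequencing of plasmid inserts. Psi-negative yeast expressing Sup35N fused to peptides of 20 random codons were induced with 100 μM copper sulfate for 24 hours and grown 7 days at 30°C on medium lacking adenine and uracil. Random libraries had three technical output replicates.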
Take NKHMGKQLAIAMAVRCAYSG: the amyloid nucleation score stood at 0.326 ± 0.33.

With NKNGSHL, the amyloid nucleation score entry was “inactive”.

For the substance NKYLMINLGYQGSKENDIGV, the amyloid nucleation score result is “inactive”.

In the case of NLAFTNVKVWVWSFSLLLYC, the amyloid nucleation score entry is “inactive”.

Take NLAIL: the amyloid nucleation score result was “inactive”.

Turning to NLCQSAGRFCWG, the amyloid nucleation score entry is “inactive”.

Turning to NLCSCDNWRRRRCASMWALV, the amyloid nucleation score result was “inactive”.

As for NLDRLWTNQGFAFWIRTYVV, the amyloid nucleation score result is “inactive”.

As for NLEFFCKDV, the amyloid nucleation score entry is “inactive”.

For NLFSEFGMFNGKGPVGTSVG, the amyloid nucleation score entry is “inactive”.

As for NLHNVMRKFTQGFSGHKTKL, the amyloid nucleation score result is “inactive”.

Consider NLKLAWNRLSRMHWFLMNRS, for which the amyloid nucleation score entry was “inactive”.

For the substance NLLLFF, the amyloid nucleation score is 1.82 ± 0.096.

With NLMFVLHRTSWSNFCLKRKC, the amyloid nucleation score entry was “inactive”.

Regarding NLNGFYSRGVIFR, the amyloid nucleation score result is “inactive”.

As to NLPHRLVTNRMCGAGGFGII, the amyloid nucleation score result was “inactive”.

For the substance NLPLYPSGFFKSMIRNRVLT, the amyloid nucleation score is 1.66 ± 0.083.

With NLRHYTVDMLCSNYEYVIVY, the amyloid nucleation score entry was “inactive”.

Regarding NLRKKWFWAYNPSYETSPLV, the amyloid nucleation score result was “inactive”.

Take NLSNLLNLVRLVRGRLGNAA: the amyloid nucleation score result was “inactive”.

In the case of NLSVGRALTWHPSPWDQQIW, the amyloid nucleation score entry is “inactive”.

In turn, NLTGCMDLC came in with an amyloid nucleation score of 0.853 ± 0.19.

NLTINVVAVQFLFMTTGY showed an amyloid nucleation score of 2.63 ± 0.08.

Turning to NLYMDEHHFKAFNGCTNQLI, the amyloid nucleation score result is “inactive”.

As for NLYRRYHVHSKRALSIYSTP, the amyloid nucleation score is -0.033 ± 0.23.

In the case of NMDNHTPG, the amyloid nucleation score result is “inactive”.

NMDSAWKCPHPYKSLTIVCF: the amyloid nucleation score entry is “inactive”.

Take NMFSGVG: the amyloid nucleation score entry is “inactive”.

As for NMGALIRSRQVEVSHKRVSG, the amyloid nucleation score result is “inactive”.

For the substance NMIFA, the amyloid nucleation score entry was “inactive”.

As to NMMPREPDTFMGYSGRRLCV, the amyloid nucleation score was -0.284 ± 1.1.

Turning to NMRGEFQTLANWVWLLQRVL, the amyloid nucleation score result is “inactive”.

For NMSWNVCVRFK, the amyloid nucleation score is 1.87 ± 0.068.

In the case of NMVHCVLCIAHEHLKVFVMC, the amyloid nucleation score entry was “inactive”.

In the case of NMVIV, the amyloid nucleation score entry is “inactive”.

For the substance NNDIVKGSPPPWVMFLVALH, the amyloid nucleation score entry was “inactive”.

In the case of NNERITWERDIRSRCFPVLV, the amyloid nucleation score result was “inactive”.

Take NNGSP: the amyloid nucleation score result was “inactive”.

With NNGSSRYMWSSYFLVGY, the amyloid nucleation score entry was “inactive”.

Consider NNIFWMRFMFDPWRR, for which the amyloid nucleation score was found to be 1.04 ± 0.21.

On to NNLRNIPE, for which the amyloid nucleation score result was “inactive”.

Turning to NNLSNWIRKVCNSYYHPTYQ, the amyloid nucleation score result is “inactive”.

With NNQCKACSLWWQSSYPDKMF, the amyloid nucleation score result was “inactive”.

In the case of NNTCMNGAVLWSEMAKTGGC, the amyloid nucleation score result is “inactive”.

NPCHCQRRINFVL: the amyloid nucleation score entry is “inactive”.

In the case of NPFLSCKNYGICSYVGTNVF, the amyloid nucleation score came to 1.09 ± 0.096.

For the substance NPSTLYCGSLHSLVLRSFLI, the amyloid nucleation score result was “inactive”.

With NPVGT, the amyloid nucleation score result was “inactive”.

NQTGSSRTSCCMDRWLMYIA: the amyloid nucleation score entry is “inactive”.

With NRALNW, the amyloid nucleation score result is “inactive”.

Turning to NRFVDLGGQHDTHCVRGYGL, the amyloid nucleation score result is “inactive”.

Turning to NRFVNLSNRMVYDFRYRMAV, the amyloid nucleation score result was “inactive”.

On to NRGLWRM, for which the amyloid nucleation score result was “inactive”.

Substance NRGSGRSMYMRSSFYSESGS displayed an amyloid nucleation score of 0.522 ± 0.28.

For NRLRV, the amyloid nucleation score result was “inactive”.

Take NRNATSCGKPAFNKWNYFCQ: the amyloid nucleation score result is “inactive”.

As for NRRWILRRLLPSVNLSE, the amyloid nucleation score entry is “inactive”.

As to NRSFSNGCVIRLELFNNVYA, the amyloid nucleation score result is “inactive”.

Regarding NRSLEVNELI, the amyloid nucleation score was -0.412 ± 0.68.

Turning to NRSTGVKSQGIDFLLSCFLV, the amyloid nucleation score entry is “inactive”.

Consider NRSTLYSSLCGYRVRENISW, for which the amyloid nucleation score was found to be 1.4 ± 0.097.

NRTWIGIIHLFGLYYGVCGG showed an amyloid nucleation score of 0.621 ± 0.2.

For the substance NRWEFVHLLSYWNKSCDLCC, the amyloid nucleation score result is “inactive”.

On to NRYHRIIRDAIRKDYTVCSL, for which the amyloid nucleation score result is “inactive”.

Regarding NSASSFCPRRLCYGRRQEDL, the amyloid nucleation score entry was “inactive”.

For NSDLIRVNRSVMYAKETCEV, the amyloid nucleation score result is “inactive”.

On to NSGLSG, for which the amyloid nucleation score entry was “inactive”.

As to NSIIGTVDGKSGSNRVRSP, the amyloid nucleation score entry is “inactive”.

In the case of NSKLRLFWRTGMVHSVVDVS, the amyloid nucleation score entry is “inactive”.

For NSKNFIMSISRLGYLASF, the amyloid nucleation score result is “inactive”.

On to NSLNKGKFHWVNIGTSSLQG, for which the amyloid nucleation score entry is “inactive”.

Consider NSLWSYMGTVLFNPFWLVWR, for which the amyloid nucleation score entry was “inactive”.

For the substance NSPTYYPHSFLMTYKALSFT, the amyloid nucleation score result is “inactive”.

As for NSRHLDIFRMFDNFSVCHQP, the amyloid nucleation score result was “inactive”.

Consider NSSAYFFDAAGSTRLDQASY, for which the amyloid nucleation score entry is “inactive”.

In the case of NSSLCYFENLTTAIFVMEWI, the amyloid nucleation score result was “inactive”.

As to NSTINAPRLTRPGGPCSRKV, the amyloid nucleation score entry is “inactive”.

In the case of NSWIMYRGGKDDDFVVPWAA, the amyloid nucleation score result is “inactive”.

Regarding NTCSLFSKISDNIQRSAHAR, the amyloid nucleation score result was “inactive”.

NTFDTVLFRDLVYL: the amyloid nucleation score result was “inactive”.

For NTFWLGVRIDGVFGWATNLP, the amyloid nucleation score result was “inactive”.

NTHAVLICKCKDCEWNMIGG gave an amyloid nucleation score of 0.246 ± 0.66.

Turning to NTLWYIWGG, the amyloid nucleation score entry was “inactive”.

On to NTPLWAFPEVLSDHNFN, for which the amyloid nucleation score result was “inactive”.

For NTRRNYNGRYLVLCIRLQLR, the amyloid nucleation score was determined as 1.81 ± 0.072.

Take NTVEPLYCCCSNRCISVSYV: the amyloid nucleation score result is “inactive”.

Consider NVCDRLLDKPHELSFSEKSV, for which the amyloid nucleation score result was “inactive”.

As for NVDVTELCTAVTYNDLHGFR, the amyloid nucleation score entry was “inactive”.

Turning to NVFLMAYRVYACKLRGTGLS, the amyloid nucleation score result is “inactive”.

On to NVFSFFTTSSEKGLCPPRRS, for which the amyloid nucleation score result was “inactive”.

Take NVISV: the amyloid nucleation score result is “inactive”.

For NVLQYYNRLGTSRCIRAAFL, the amyloid nucleation score entry was “inactive”.

As for NVLVKYVPAALFRSNSLQET, the amyloid nucleation score result is “inactive”.

As to NVMSLSMWSSLSLWYSGLS, the amyloid nucleation score result was “inactive”.

As for NVNGSFKI, the amyloid nucleation score entry was “inactive”.

Regarding NVNWIRFDFHFVFV, the amyloid nucleation score amounted to 2 ± 0.071.

(Values after the supplement of paper PMC12042874.)
